Measured values reported in patent US20220127372A1.

B1: GPC3-SL-mCD3ε (protein)
chain: EVQLVQSGAEVKKPGASVKVSCKASGYTFSDYEMHWVRQAPGQGLEWMGAIHPGSGDTAYNQRFKGRVTITADKSTSTAYMELSSLRSEDTAVYYCARFYSYAYWGQGTLVTVSAGGGGSGGGGSGGGGSDIVMTQTPLSLPVTPGEPASISCRSSQSLVHSNGNTYLQWYLQKPGQSPQLLIYKVSNRFSGVPDRFSGSGSGTDFTLKISRVEAEDVGVYYCSQSIYVPYTFGQGTKLEIKRAAAGGGGSGGGGSGGGGSLEDDAENIEYKVSISGTSVELTCPLDSDENLKWEKNGQELPQKHDKHLVLQDFSEVEDSGYYVCYTPASNKNTYLYLKARVCEYCVEVDLTAVAIIIIVDICITLGLLMVIYYWSKNRKAKAKPVTRGTGAGSRPRGQNKERPPPVPNPDYEPIRKGQRDLYSGLNQRAV
B2: GPC3-SL-mCD3ε-F2A-mCCL21b (protein)
chain: EVQLVQSGAEVKKPGASVKVSCKASGYTFSDYEMHWVRQAPGQGLEWMGAIHPGSGDTAYNQRFKGRVTITADKSTSTAYMELSSLRSEDTAVYYCARFYSYAYWGQGTLVTVSAGGGGSGGGGSGGGGSDIVMTQTPLSLPVTPGEPASISCRSSQSLVHSNGNTYLQWYLQKPGQSPQLLIYKVSNRFSGVPDRFSGSGSGTDFTLKISRVEAEDVGVYYCSQSIYVPYTFGQGTKLEIKRAAAGGGGSGGGGSGGGGSLEDDAENIEYKVSISGTSVELTCPLDSDENLKWEKNGQELPQKHDKHLVLQDFSEVEDSGYYVCYTPASNKNTYLYLKARVCEYCVEVDLTAVAIIIIVDICITLGLLMVIYYWSKNRKAKAKPVTRGTGAGSRPRGQNKERPPPVPNPDYEPIRKGQRDLYSGLNQRAV
B3: GPC3-SL-mCD3ε-F2A-mIL7-P2A-mCCL21b (protein)
chain: EVQLVQSGAEVKKPGASVKVSCKASGYTFSDYEMHWVRQAPGQGLEWMGAIHPGSGDTAYNQRFKGRVTITADKSTSTAYMELSSLRSEDTAVYYCARFYSYAYWGQGTLVTVSAGGGGSGGGGSGGGGSDIVMTQTPLSLPVTPGEPASISCRSSQSLVHSNGNTYLQWYLQKPGQSPQLLIYKVSNRFSGVPDRFSGSGSGTDFTLKISRVEAEDVGVYYCSQSIYVPYTFGQGTKLEIKRAAAGGGGSGGGGSGGGGSLEDDAENIEYKVSISGTSVELTCPLDSDENLKWEKNGQELPQKHDKHLVLQDFSEVEDSGYYVCYTPASNKNTYLYLKARVCEYCVEVDLTAVAIIIIVDICITLGLLMVIYYWSKNRKAKAKPVTRGTGAGSRPRGQNKERPPPVPNPDYEPIRKGQRDLYSGLNQRAV
B4: GPC3-SL-mCD3ε-NFAT-mIL12 (protein)
chain: EVQLVQSGAEVKKPGASVKVSCKASGYTFSDYEMHWVRQAPGQGLEWMGAIHPGSGDTAYNQRFKGRVTITADKSTSTAYMELSSLRSEDTAVYYCARFYSYAYWGQGTLVTVSAGGGGSGGGGSGGGGSDIVMTQTPLSLPVTPGEPASISCRSSQSLVHSNGNTYLQWYLQKPGQSPQLLIYKVSNRFSGVPDRFSGSGSGTDFTLKISRVEAEDVGVYYCSQSIYVPYTFGQGTKLEIKRAAAGGGGSGGGGSGGGGSLEDDAENIEYKVSISGTSVELTCPLDSDENLKWEKNGQELPQKHDKHLVLQDFSEVEDSGYYVCYTPASNKNTYLYLKARVCEYCVEVDLTAVAIIIIVDICITLGLLMVIYYWSKNRKAKAKPVTRGTGAGSRPRGQNKERPPPVPNPDYEPIRKGQRDLYSGLNQRAV
B5: GPC3-SL-mCD3ε-F2A-mRunx3 (protein)
chain: EVQLVQSGAEVKKPGASVKVSCKASGYTFSDYEMHWVRQAPGQGLEWMGAIHPGSGDTAYNQRFKGRVTITADKSTSTAYMELSSLRSEDTAVYYCARFYSYAYWGQGTLVTVSAGGGGSGGGGSGGGGSDIVMTQTPLSLPVTPGEPASISCRSSQSLVHSNGNTYLQWYLQKPGQSPQLLIYKVSNRFSGVPDRFSGSGSGTDFTLKISRVEAEDVGVYYCSQSIYVPYTFGQGTKLEIKRAAAGGGGSGGGGSGGGGSLEDDAENIEYKVSISGTSVELTCPLDSDENLKWEKNGQELPQKHDKHLVLQDFSEVEDSGYYVCYTPASNKNTYLYLKARVCEYCVEVDLTAVAIIIIVDICITLGLLMVIYYWSKNRKAKAKPVTRGTGAGSRPRGQNKERPPPVPNPDYEPIRKGQRDLYSGLNQRAV

Molecular target: mouse GPC3 protein (mouse) (UniProt Q8CFZ4)
Assay: cell-based or functional assay

Sequence of UniProt Q8CFZ4 (Q8CFZ4 25-579 limits assumed): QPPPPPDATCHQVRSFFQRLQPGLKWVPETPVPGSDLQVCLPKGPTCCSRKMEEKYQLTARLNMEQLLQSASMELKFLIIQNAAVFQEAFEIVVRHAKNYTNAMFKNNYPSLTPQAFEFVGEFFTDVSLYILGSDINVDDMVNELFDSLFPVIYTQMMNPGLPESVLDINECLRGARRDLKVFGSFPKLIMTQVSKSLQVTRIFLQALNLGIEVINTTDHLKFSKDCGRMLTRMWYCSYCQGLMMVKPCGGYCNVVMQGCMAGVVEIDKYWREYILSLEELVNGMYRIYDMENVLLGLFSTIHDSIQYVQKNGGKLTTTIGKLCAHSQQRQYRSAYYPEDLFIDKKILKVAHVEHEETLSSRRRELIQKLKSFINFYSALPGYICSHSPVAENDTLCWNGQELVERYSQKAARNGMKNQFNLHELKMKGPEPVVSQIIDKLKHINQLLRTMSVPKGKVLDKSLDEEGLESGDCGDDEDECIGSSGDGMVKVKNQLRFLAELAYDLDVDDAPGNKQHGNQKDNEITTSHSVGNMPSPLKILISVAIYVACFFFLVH

Binder | cytotoxicity to Hepa 1-6 GPC3 cells, effector target ratio 1:1, 18 h (CytoTox 96) [%]
B1 | 70.7
B2 | 73.2
B3 | 73.4
B4 | 91.5
B5 | 82.2
